Assay results published in patent US9506077B2, “Synthetic chloroplast transit peptides” (DOW AGROSCIENCES LLC, priority 2012, dated 2016).

Assays:
[1] = system: T1 Arabidopsis; experiment: T1 Arabidopsis response to glyphosate applied postemergence (Tables 5-7); type: in vivo, Arabidopsis thaliana
Description: Transgenic T1 Arabidopsis plants containing the dgt-28 transgene were sprayed with differing rates of glyphosate. Elevated rates were applied in this study to determine the relative levels of resistance (105, 420, 1,680 or 3,360 g ae/ha). A typical 1× usage rate of glyphosate that will control non-transformed Arabidopsis is 420 g ae/ha. […] The T1 Arabidopsis plants that were used in this study were variable copy number for the dgt-28 transgene. The low copy dgt-28 T1 Arabidopsis plants were self-pollinated and used to produce T2 plants.
The Arabidopsis T1 transformants were first selected from the background of untransformed seed using a glufosinate selection scheme. Three flats or 30,000 seed were analyzed for each T1 construct. The T1 plants selected above were molecularly characterized and representative plants with variable copy number were subsequently transplanted to individual pots and sprayed with various rates of commercial glyphosate as previously described. The response of these plants is presented in terms of % visual injury 2 weeks after treatment (WAT). […] An arithmetic mean and standard deviation is presented for each construct used for Arabidopsis transformation. The range in individual response is also indicated in the last column for each rate and transformation. Wild-type, non-transformed Arabidopsis (c.v. Columbia) served as a glyphosate sensitive control.

[2] = system: T1 tobacco; experiment: Postemergence glyphosate tolerance of dgt-28 T1 tobacco (Table 25); type: in vivo, Tobacco (cv. Petit Havana); conditions: 2240 g ae/ha glyphosate, 14 DAT
Description: T1 resistant plants from each event used in the progeny testing were given unique identifiers and sampled for zygosity analyses of the dgt-28 gene. Zygosity data were used to assign 2 hemizygous and 2 homozygous replicates to each rate of glyphosate applied allowing for a total of 4 replicates per treatment. These plants were compared against wildtype Petite havana tobacco. All plants were sprayed with a track sprayer set at 187 L/ha. The plants were sprayed from a range of 560-4480 g ae/ha DURANGO DMA™. All applications were formulated in water with the addition of 2% w/v ammonium sulfate (AMS). Plants were evaluated at 7 and 14 days after treatment. Plants were assigned an injury rating with respect to overall visual stunting, chlorosis, and necrosis. The T1 generation is segregating, so some variable response is expected due to difference in zygosity.

[3] = system: chloroplasts of the tobacco cells; experiment: Tobacco transient assay, confocal microscopy of TraP-GFP; type: cell-based, Nicotiana benthamiana; conditions: TraP23-GFP, infiltrated tobacco leaf
Description: The Trap23 synthetic chloroplast transit peptide sequence were initially tested via a transient in planta assay. A polynucleotide sequence which encodes the Trap23v2 (SEQ ID NO:12) synthetic chloroplast transit peptide sequences was synthesized. The resulting construct contained two plant transcription units (PTU). The first PTU was comprised of the Arabidopsis thaliana Ubiquitin 10 promoter (AtUbi10 promoter; Callis, et al., (1990) J. Biol. Chem., 265: 12486-12493), TraP-green fluorescent protein fusion gene (TraP-GFP; U.S. Pat. No. 7,678,893), and Agrobacterium tumefaciens ORF 23 3′ untranslated region (AtuORF23 3′UTR; U.S. Pat. No. 5,428,147). […]
Agrobacterium-infiltrated tobacco leaves were severed from the plant, and placed into a petri-dish with water to prevent dehydration. The infiltrated tobacco leaves were observed under blue light excitation with long-pass filter glasses held in place using a Dark Reader Hand Lamp™ (Clare Chemical Research Co.; Dolores, Colo.) to identify undamaged areas of the leaf that were successfully expressing the GFP reporter proteins. […]

[4] = system: infiltrated tobacco cells; experiment: Tobacco transient assay, anti-GFP Western blot; type: cell-based, Nicotiana benthamiana; conditions: infiltrated tobacco leaf; band size vs GFP control
Protocol: Samples of the infiltrated tobacco plants were assayed via Western blotting. Leaf punches were collected and subjected to bead-milling. About 100-200 mg of leaf material was mixed with 2 BBs (steel balls; Daisy; Rogers, Ark.) and […] of PBST for 3 minutes in a Kleco™ bead mill. The samples were then spun down in a centrifuge at 14,000×g at 4° C. The supernatant was removed and either analyzed directly via Western blot or immunoprecipitated. The immunoprecipitations were performed using the Pierce Direct IP Kit™ (Thermo Scientific; Rockford, Ill.) following the manufacturer's protocol. Approximately, 50 μg of anti-GFP was bound to the resin. The samples were incubated with the resin overnight at 4° C. Next, the samples were washed and eluted the following morning and prepped for analysis by combining equal volumes of 2×8M Urea sample buffer and then boiling the samples for 5 minutes. The boiled samples were run on a 4-12% SDS-Bis Tris gel in MOPS buffer for 40 minutes. The gel was then blotted using the Invitrogen iBlot™ (Life Technologies; Carlsbad, Calif.) following the manufacturer's protocol. The blotted membrane was blocked for 10 minutes using 5% non-fat dry milk in PBS-Tween solution. The membrane was probed with the primary antibody (monoclonal anti-GFP in rabbit) used at a 1:1000 dilution in the 5% non-fat dry milk in PBS-Tween solution for 1 hour. […]

[5] = system: chloroplasts of the maize protoplast; experiment: Maize protoplast transient assay, GFP microscopy; type: cell-based, Zea mays var. B104; conditions: TraP23-GFP, maize protoplasts, 12 hours incubation
Description: The Trap23 v2 synthetic chloroplast transit peptide-encoding polynucleotide sequence (SEQ ID NO:12) was cloned upstream of the green fluorescent protein gene and incorporated into the pDAB106598 construct (FIG. 5) for testing via the maize protoplast transient in planta assay. The resulting construct contained the following plant transcription unit (PTU). The first PTU was comprised of the Zea mays Ubiquitin 1 promoter (ZmUbi1 promoter; Christensen, A., Sharrock R., and Quail P., (1992) Maize polyubiquitin genes: structure, thermal perturbation of expression and transcript splicing, and promoter activity following transfer to protoplasts by electroporation, Plant Molecular Biology, 18:675-689), TraP-green fluorescent protein fusion gene (TraP23-GFP; U.S. Pat. No. 7,678,893), and Zea mays Peroxidase 5 3′ untranslated region (ZmPer5 3′UTR; U.S. Pat. No. 6,384,207). The construct was confirmed via restriction enzyme digestion and sequencing.
Seed of Zea mays var. B104 were surface sterilized by shaking vigorously in 50% Clorox (3% sodium hypochlorite), containing 2-3 drops of Tween 20, for about 20 minutes. […]
Transfection of 100 to 500 μl of protoplasts (1-5×10^5) was completed by adding the protoplasts to a 2 ml microfuge tube containing about 40 μg of plasmid DNA (pDAB106598), at room temperature. […] Fluorescence of GFP was viewed by microscopy after 12 hours of incubation. […]

Molecule	typical 1x usage rate of glyphosate that will control non-transformed Arabidopsis [1]	% Injury Ave [2]	accumulation of GFP protein within the chloroplasts (microscopy imaging) [3]	processing and cleavage of transit peptide from GFP (Western blot) [4]	accumulation of GFP within the chloroplasts (microscopy imaging) [5]
O=C(O)CNCP(=O)(O)O [glyphosate]	420 g ae/ha				
TraP8: chloroplast transit peptide, encoding sequence SEQ ID NO:26, fused to dgt-28 (protein, Chloroplast Transit Peptide) MAQSSRICHGVQNPCVIISNLSKSNQNKSPFSVSLKTHQQQRRAYQISSWGLKKSNNGSVIRPVKA		9.3%			
TraP23: synthetic chloroplast transit peptide, SEQ ID NO:11; encoded by SEQ ID NO:12; tested fused to GFP, dgt-28, dgt-31, cry2Aa (protein, TraP23 synthetic chloroplast transit peptide, tested fused to GFP, dgt-28, dgt-31, cry2Aa) MAQINKSANGVRNASLISNFSNTRQAKSPFSLSCGTRLKNSSRGLKKVAVRLIGSRVKVSAS		9.5%	did not accumulate detectable amounts of GFP protein within the chloroplasts	processed	accumulated within the chloroplasts
TraP4: chloroplast transit peptide, encoding sequence SEQ ID NO:24, fused to dgt-28 (protein, Chloroplast Transit Peptide) MLARQGGSLRASQCNAGLARRVEVGALVVPRPISVNDVVPHVYSAPLSVARRSCSKSSIRSTRRLQTTVCS		of 37.5% was demonstrated with the event containing TraP4,			
